Reference: patent US20150218240A1 (SAMSUNG ELECTRONICS, published 2015)

Target: T1, Cdk6 (Abcam's ab84717, recombinant full length Human Cdk6 (amino acids 1-326) with N-terminal His tag) (human, UniProt Q00534 1-326)
T1 construct: range 1-326; Bought reagent (Abcam ab84717), coated on the ELISA plate at 1 ug/ml; also called CDk6 protein; not shown: N-terminal His tag of the bought protein
Test: ELISA: Cdk6 coated on plate, p16 at 0-10 uM, detected with anti-p16 antibody and HRP secondary, A450

T1 sequence (Q00534 whole entry, the tested form may be a part): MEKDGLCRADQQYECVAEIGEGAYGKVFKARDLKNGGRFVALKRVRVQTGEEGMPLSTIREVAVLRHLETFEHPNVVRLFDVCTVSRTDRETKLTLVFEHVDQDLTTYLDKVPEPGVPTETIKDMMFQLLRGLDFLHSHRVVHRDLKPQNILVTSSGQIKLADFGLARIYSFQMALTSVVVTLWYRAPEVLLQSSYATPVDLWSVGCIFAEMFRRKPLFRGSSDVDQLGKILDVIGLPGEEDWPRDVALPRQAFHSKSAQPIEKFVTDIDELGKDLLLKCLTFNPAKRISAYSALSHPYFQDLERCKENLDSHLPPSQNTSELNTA

- binding result: binds
B1: human p16 protein variant (SEQ ID NO: 2; W15K, L37D, L65K, C72S, L78S, V106A, L113T) (other)
chain: MEPAAGSSMEPSADKLATAAARGRVEEVRALLEAGADPNAPNSYGRRPIQVMMMGSARVAELLLKHGAEPNSADPATSTRPVHDAAREGFLDTLVVLHRAGARLDARDAWGRTPVDLAEELGHRDVARYLRAAAGGTRGSNHARIDAAEGPSDIPD
notes: also called p16INK4a variant; mt p16
